What is called EC50 is the concentration at which the effect is half-maximal. A higher EC50 goes with a less potent agent.

Results on four molecules are retold here after US20220281967A1 (OREGA BIOTECH, published 2022).

T1: human IL-17B (R&D Systems, ref: 1248-IB/CF) (UniProt Q9UHF5 21-180)
T1 chain: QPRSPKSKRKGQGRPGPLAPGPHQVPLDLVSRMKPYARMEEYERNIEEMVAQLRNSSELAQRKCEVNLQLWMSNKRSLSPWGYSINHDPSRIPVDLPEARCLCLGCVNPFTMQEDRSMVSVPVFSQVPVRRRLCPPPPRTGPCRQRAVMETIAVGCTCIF

T2: human IL-17B (R&D Systems, ref: 1248-IB/CF) (human, UniProt Q9UHF5 21-180)
T2 construct: Bought recombinant protein; also called hIL-17B; interleukin 17B
T2 sequence: T1 chain

B1: Antibody 18G9 (antibody, V domains shown)
VH: QITLKESGPGILKPSQTLSLTCSFSGFSLSTSGMGVGWIRQPSGKGLEWLAHIWWDDDKYYNPSLKSQLTISKDTSRNQVFLRITSVDTADTATYYCARRTQGYFDYWGQGTTLTVSS
VL: DILMTQSPASLAVSLGQRATISCKASQSVDYDGDSYMNWYQQKPGQPPKLLIYAASNLESGIPARFSGSGSGTDFTLNIHPVEEEDAATYYCQQSNEDPLTFGAGTKLELK
notes: Mouse monoclonal antibody directed against human IL-17B; also called mAb 18G9; 18G9a
B2: Antibody 13H5 (antibody, V domains shown)
VH: QVTLKESGPGILQPSQTLSLTCSFSGFSLSTFGMGVGWIRQPSGKGLEWLAHIWWDDDKYYNPALKSRLTISKDTSKNQVFLKIANVDTADTATYYCARMNDGYLYYWGQGTSVTVSS
VL: QIVLTQSPAIMSASPGEKVTMTCSASSSVSYMYWYQQKPGSSPRLLIYDTSNLASGVPVRFSGSGSGTSYSLTISRMEAEDAATYYCQQWSSYPFTFGSGTKLEIK
notes: Mouse monoclonal antibody directed against human IL-17B; also called mAb 13H5
B3: Antibody 12F9 (antibody, V domains shown)
VH: QVQLQQSGPELVKPGASVKISCKASGYTFTDYFINWVRQRPGQGLEWIGWIFPGSGSTYYHEKFKGKATLTVDKSSSTAYMLLSSLTSEDSAVYFCARTLYGNWYFDVWGTGTTVTVSS
VL: DVLMTQTPLSLPVSLGDQASISCRSSQSIVHSNGNTYLEWYLQKPGQSPKLLIYKVSNRFSGVPDRFSGSGSGTDFTLKISRVEAEDLGVYYCFQGSHVPYTFGGGTKLEIK
notes: Mouse monoclonal antibody directed against human IL-17B; also called mAb 12F9
B4: Antibody 21H6 (antibody, V domains shown)
VH: QVTLKESGPGILQPSQTLSLTCSFSGFSLSTFGMGVGWIRQPSGKGLEWLAHIWWDDDKYYNPALKGRLTISKDTSKNQVFLKIANVDTADTATYFCARIEDALDYWGQGTSVTVSS
VL: DIVMTQSPATLSVTPGDRVSLSCRASQNISDYLHWYQQKSHESPRLLIKYTSQSISGIPSRFSGSGSGSDFTLSINSVEPEDVGVYYCQNGHSFPFTFGSGTKLEIK
notes: Mouse monoclonal antibody directed against human IL-17B; also called mAb 21H6

The first assay addresses T1, human IL-17B (R&D Systems, ref: …). Nature of the assay: ELISA.
With B1, the half-maximal effective concentration (EC50) is 6.88 ng/mL.

Molecule B2 showed a concentration for a half-maximal effect (EC50) of 6.64 ng/mL.

For B3, the EC50 stood at 13.7 ng/mL.

Turning to B4, the EC50 was determined as 2.28 ng/mL.

For a further assay, the target named is T2, human IL-17B (R&D Systems, ref: …). Nature of the assay: ELISA, human IL-17B coated on the plate, goat anti-mouse HRP detection.
Procedure: Immediately coat a Maxisorp 96-well plate; [0250] […] Incubate 15 min at RT with 50 μl of ABTS substrate (Sigma-Aldrich, ref: A3219-100 ML) [0260] Measure DO (Optical Density) at 405 nm
With B1, the binding result was “binds”.

Turning to B2, the binding result is “binds”.

Turning to B3, the binding result was “binds”.

Turning to B4, the binding result is reported as “binds”.
